Experimental data as given in ChEMBL document CHEMBL1126580, “Enantiospecific syntheses of alpha-(fluoromethyl)tryptophan analogues: interactions with tryptophan hydroxylase and aromatic L-amino acid decarboxylase” (J Med Chem, 1993).

Legend:
[1] = substrate: N[C@@](CF)(Cc1c[nH]c2ccccc12)C(=O)O; assay: Compound was evaluated as a substrate for P815 tryptophan hydroxylase […]
[2] = substrate: N[C@@](CF)(Cc1c[nH]c2ccccc12)C(=O)O; assay: Km value was evaluated as a substrate for P815 tryptophan hydroxylase […]

B1: Tryptophan 5-hydroxylase 1 (Rattus norvegicus), P09810 (protein)
chain: MIEDNKENKDHSSERGRVTLIFSLKNEVGGLIKALKIFQENHVNLLHIESRKSKRRNSEFEIFVDCDINREQLNDIFPLLKSHTTVLSVDSPDQLPEKEDVMETVPWFPKKISDLDFCANRVLLYGSELDADHPGFKDNVYRRRRKYFAELAMNYKHGDPIPKIEFTEEEIKTWGTIFRELNKLYPTHACREYLRNLPLLSKYCGYREDNVPQLEDVSNFLKERTGFSIRPVAGYLSPRDFLSGLAFRVFHCTQYVRHSSDPLYTPEPDTCHELLGHVPLLAEPSFAQFSQEIGLASLGASEETVQKLATCYFFTVEFGLCKQDGQLRVFGAGLLSSISELRHALSGHAKVKPFDPKVACKQECLITSFQDVYFVSESFEDAKEKMREFAKTVKRPFGVKYNPYTQSIQVLRDSKSITSAMNELRHDLDVVNDALARVSRWPSV
Vmax (uM min-1 (mg of protein)-1) [1]: 17.7 | Km [2]: 4.31 mM
